These results are taken from patent US8067376B2, “Pharmaceutical compositions for transdermal delivery” (Forhumantech Co., Ltd., priority 2004, dated 2011).

For data set [1], the system named is New Zealand White rabbits. Nature of the data set: Skin irritation test in rabbits. The format is in vivo, rabbit. The note with it: healthy and scratch skin. The protocol:
The skin irritability of the inventive conjugate was examined. The inventive conjugate was applied to the healthy skin and scratch skin of New Zealand White rabbits, which were then evaluated comparatively with the healthy skin and scratch skin to which the inventive conjugate had not been applied.

The test system of the next data set is HeCaT cell line. Briefly: Cell proliferation-inhibitory effect by WST-1 assay. The format is cell-based. Conditions: 0.2, 1.5, 4.4, 13.3 and 40 μM, after 2 days. From the text:
In this Example, the cell proliferation-inhibitory effect of PTD-MTX was observed by WST-1 assay (Roche Biochemical) in vitro.
To analyze the cell proliferation-inhibitory effect of PTD-MTX, a HeCaT cell line (obtained from the Department of Dermatology, College of Medicine, Chungnam National University, Korea) was used to analyze cell death. For this purpose, […] were inoculated into DMEM medium (10% FCS, antibiotics (GIBCO)) on a 96-well plate and cultured overnight. To the culture medium, MTX alone, PTD-MTX and PTD-ACA-MTX conjugates prepared in Example 1 were added with concentrations of 0.2, 1.5, 4.4, 13.3 and 40 μM respectively. After 2 days, the inhibition of proliferation of the cells was analyzed by the WST-1 assay.
In the WST-1 assay, tetrazolium salt is present in the respiratory chain of mitochondria and cleaved into a formazan dye by succinate-tetrazolium-reductase having activity only for viable cells, and if the number of viable cells increases, the entire activity of mitochondria dehydrogenase in a sample will increase. Since this increase in enzymatic activity induces an increase in the production of formazan dye, the formazan dye will show a linear correlation with the number of metabolically active cells in medium. The absorbance of the dye solution was measured with an ELISA reader to quantify the formazan dye produced by the metabolically active cells so as to observe cell proliferation ability and cell viability.
A general note: Formazan colour is commonly taken as a measure of viable cells.

The test system of a further data set is Sprague Dawley rats. Nature of the data set: Toxicity test by single subcutaneous administration to rats. The class given is in vivo, rat. As for the experimental part:
Toxicity by the single subcutaneous administration of PTD-ACA-MTX prepared in Example 1 was examined. Male and female Sprague Dawley rats (Samtako) were divided into an excipient control group administered with sterilized water for injection, and test groups administered with the inventive conjugate in amounts of 5, 50 and 500 mg/kg. Each of the animal groups consisted of 10 animals (five males and five females) and observed for mortality for 2 weeks, general symptoms, bodyweight change, and autopsy findings. All the test methods were performed according to toxicity test standards provided by the Korea Food and Drug Administration, and the test results are as follows.

A further data set has as its system DBA/1J mice. Briefly: Arthritis animal model (rheumatoid arthritis induced by II-type collagen). The class given is in vivo, mouse. As for the experimental part:
For in vivo verification of the pharmacological effects of the PTD-ACA-MTX conjugate, DBA/1J mice (obtained from Samtako) were injected with e II-type collagen (obtained from Sigma) to induce rheumatoid arthritis. The mice were divided into a group for intraperitoneal (I.P.) injection of the PTD-ACA-MTX conjugate prepared in Example 1, a group for transdermal administration of the PTD-ACA-MTX conjugate prepared in Example 1, and a group for intraperitoneal (I.P.) injection of MTX alone. For the groups for intraperitoneal (I.P.) injection, MTX was injected in a dosage of 0.3 mg/kg for 4 weeks, and for the group for transdermal administration, a cream-type composition consisting of 5 wt %, based on the weight of the composition, of ethanol, 15 wt % of liquid paraffin, 40 wt % of Vaseline, 0.1 wt % of the PTD-ACA-MTX conjugate, 10 wt % of glycerin and 30 wt % of polyethylene glycol was prepared and then applied on rheumatoid arthritis-induced sites four times weekly. After treatment with the drugs, the arthritis index was monitored one time each week, and after 4 weeks, the animals were sacrificed and the IL-4, IL-6, TNF-α and arthritis factor levels in the blood were measured (see FIGS. 7, 8 and 9; results obtained using PTD of SEQ ID NO: 2 are not shown in the drawings). In FIGS. 7, 8 and 9, N: normal mice; CT: mice having rheumatoid arthritis induced by injection of collagen; M1: the group injected intraperitoneally with MTX alone; M2: the group injected intraperitoneally with PTD-ACA-MTX; and M3: the group for which the ointment preparation containing the PTD-ACA-MTX conjugate was administered transdermally.

For another data set, the system named is beagle dogs. Nature of the data set: Toxicity test by single subcutaneous administration to beagle dogs. The format is in vivo, dog. The protocol: Toxicity caused by single subcutaneous administration of the inventive conjugate was examined. Male and female beagle dogs were administered subcutaneously with the inventive conjugate in each of amounts of 4, 20 and 100 mg/kg. Each of the animal groups consisted of four animals (2 males and 2 females) and observed for mortality for 2 weeks, general symptoms, bodyweight change, and autopsy findings. All the test methods were performed according to toxicity test standards provided by the Korea Food and Drug Administration, and the test results are as follows.

Data set [2] in a line: Prior enzyme test of PTD-MTX conjugate versus MTX alone. The class given is biochemical. The note with it: prior enzyme test results.
Where [3] appears, read: 500 mg/kg, male and female animals.

Entries after “also recorded” stand apart in the source; their conditions may differ. Ends that are not written are not given here.

“PTD-ACA-MTX (YARVRRRGPRR; also: aminocaproic acid linker, methotrexate conjugate, position not given here)”: the skin irritability classification entry in data set [1] is listed as “non-irritating substance”. Further, the skin irritation index entry in data set [1] is “zero”. For the same compound, the entries for the “cell proliferation-inhibitory effect (rank order)” value in the data set on HeCaT cell line and in the data set on HeCaT cell line (listed as MTX-ACA-PTD conjugate) were “MTX alone <PTD-MTX<PTD-ACA-MTX” and “highest inhibitory effect”, respectively. The autopsy findings result with Sprague Dawley rats (500 mg/kg, female animals) is “splenomegaly was observed”; with beagle dogs (4, 20 and 100 mg/kg single s.c.), “abnormal findings were not observed”. Further, the “autopsy findings at the administration site” value with Sprague Dawley rats (setting [3]) is “red fluid retention and incrustation”. For the same compound, the general symptoms result with Sprague Dawley rats (setting [3]) was “congestion was observed starting from one day after the administration; also recorded: incrustation was observed starting from 2 days after the administration”; in the data set on Sprague Dawley rats (500 mg/kg, male animals) it was “systemic edema was observed”; in the data set with Sprague Dawley rats (4 days to 6 days after administration, group not clearly stated (500 mg/kg context)) it was “Diarrhea and soft feces were sporadically observed”; with beagle dogs (100 mg/kg, males, anorexia 2 to 4 days, diarrhea 3 days after administration, listed as inventive conjugate), “anorexia was observed; also recorded: diarrhea was observed”; with beagle dogs (100 mg/kg, one male and female, starting from 1 hour after administration), “reduction in spontaneous motility was observed”; with beagle dogs (groups with more than 20 mg/kg, males and females, 1 hour to 6 hours after administration), “eyelid edema was observed”. For the same compound, the general symptoms result in the data set on beagle dogs (one male of 20 mg/kg group and one female of 100 mg/kg group) is “edema and a reduction in spontaneous motility were continued up to 2 days after administration”. Further, the bodyweight change result is reported as “inhibition of an increase in bodyweight” in the data set with Sprague Dawley rats (500 mg/kg, male animals, 3, 7 and 14 days after administration); “temporary inhibition of an increase in bodyweight” in the data set with beagle dogs (100 mg/kg, male and female animals, 3 days after administration). Besides, the “mortality (animals killed by the test substance)” value in the data set with Sprague Dawley rats (5, 50 and 500 mg/kg single s.c., 2 weeks) was “not observed”; in the data set on beagle dogs (4, 20 and 100 mg/kg single s.c., 2 weeks), “No animal killed by the test substance was observed”. Also, the “minimum lethal dose (MLD)” value in the data set on Sprague Dawley rats (single subcutaneous administration, rats) is “more than 500 mg/kg”. The “inflammatory cells which have penetrated inflammatory sites (tissue photographs)” value in the data set on DBA/1J mice (after treatment, H&E and M-T staining) is “greatly decreased”. Further, the “amount of inflammation-mediating cytokine TNF-α” value in the data set with DBA/1J mice (blood, after 4 weeks of treatment) is listed as “greatly decreased”. In addition, the “pharmacological effect in arthritis animal model” value in the data set on DBA/1J mice (group M3, transdermal ointment, compared with M2 (I.P. MTX-ACA-PTD) and M1 (I.P. MTX alone)) is listed as “substantially the same effect”. In the data set with beagle dogs (single subcutaneous administration, beagle dogs, both males and females), the minimum lethal dose result is recorded as “over 100 mg/kg”.
On to `CN(Cc1cnc2nc(N)nc(N)c2n1)c1ccc(C(=O)N[C@@H](CCC(=O)O)C(=O)O)cc1` [MTX alone, methotrexate, reference compound], for which the “cell proliferation-inhibitory effect (rank order)” value with HeCaT cell line was “followed by the MTX-PTD conjugate and the MTX alone in that order; also recorded: MTX alone <PTD-MTX<PTD-ACA-MTX”.
For “PTD-MTX (YARVRRRGPRR-NH2; not fully specified (N-terminus); also: methotrexate conjugate)”, the “effect in enzyme test compared to MTX alone” value in data set [2] is given as “low effects compared to MTX alone”. Besides, the “cell proliferation-inhibitory effect (rank order)” value with HeCaT cell line is reported as “MTX alone <PTD-MTX<PTD-ACA-MTX”.
